Data reported in the domain aggregation screens of Martell et al. (2025).

Experiment: soluble fraction after stress (log2 fold change); higher = more stays soluble; pooled small domains, quantitative proteomics
Conditions: stress: 75 degC
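Also: 20 min heating vs room temperature control held 20 min.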

Going from “HMIVVMAADSSREDLDLVQGRIEARGLRAQISQGVERIVIGVLGSLPPDLKDEMELLPGVREVLVIS” to “HMIYGNGVTDLKDLANGATIIIPADDSNETRALFLLQQEGLIKLPDDADAAKGVSTLDIVDGGGWVTSM”, the “soluble fraction (log2)” value rises from -1.57 to 0.0362.

First: HMIYKLIADRLKNRINSDEFEVGDALPSEKALAGELEVSVMTIRKALTLLESEKLIVKRHGSGSYVARKSN
Second: HMIYRTTSVPIDNISTQKFNLQEGWIEMNKNEVEDFIRQKNLELVVTDSNVMLDKFALNGDPNKFKVFKY
The “soluble fraction (log2)” value of the first is lower: -1.77 for the first, 0.0778 for the second.

Going from “HMKADTSPEAQKKIIAAFEPYSVNKDQIEKLIQRRIDSITPAQVIRLRKILASLKDGMSSPEDWFE” to “HMKAERLLALLTILLSGKRVSARWLSEELEVSERTVYRDVEALSEAGFPVYATTGRDGGFSLIDGF”, the “soluble fraction (log2)” value falls from -0.195 to -2.01.

Compared with “HMKAKPTLLTPYEERLKGWLETDSRRPKRDRRTGLALFAKLQQEGFTGSYTRVTEYIRRWRDSGG”, “HMKALPSAEDVALARESGRVLSTVLQTRAETQQIDFHDDKGAVRSVTLPTTALRLLLDVLTEIGQGNAV” is higher in “soluble fraction (log2)” value: -2.87 for the first, -0.106 for the second.

Going from “HMKALRNQDVVVGKPLAMAVYDQHGVLLLGRGHVVISESQRQQLLERGFSIDAEQLGRLRAAIEATQRV” to “HMKALYHQLVDLLKKRMESGMIPHDKLPSERELTAQYGVSRTTVRLALQELENTGYIYRRHGKGTFVSDI”, the “soluble fraction (log2)” value falls from -1.17 to -2.85.

“HMKANIGDQVFTQLKDQIINGEWRPGDRIPSEAQLIQLFGVSRGTVRQAVQKLAGEGLIVTRHGEGSFVQG” and “HMKAQLQHIIGSNIKLARNTQGYTQEGLAERAEISVEHLKQVERGKKMLSVESLVNVANALQVSVDSLV” are within 0.2 log units of each other in “soluble fraction (log2)” value: -0.0329 for the first, 0.0141 for the second.

Going from “HMKAQVKSVLDDIPGIGQTRRKALMRYFKSLEKIREASVEELKEADAMNERAAQSVYAFFHK” to “HMKAQVKSVLDEIPGVGPTRRKALMKHFTSIEEIKQAEFETLLEAEGMNRAAAQSVYDFFHN”, the “soluble fraction (log2)” value rises from -0.775 to -0.232.

Going from “HMKDESQLVGAEGKAVTPLRPTGVALIGEKRLDVLTEGEFIPRNSDIIVSRVEGNKIIVKLKN” to “HMKDHLRFEILSFAGDLRNGVVKTRQEFETIFAFYDKYEEIITALKVHNGYVDSEFDFIKEKFKELKSK”, the “soluble fraction (log2)” value falls from 0.00394 to -2.78.

First: HMKDLQAISERMEEIISFAKANDNEISLFIVQDIIKNKKTGIDEDLLNMALYQIKEQGIKVLPA
Second: HMKDSIQIPNVVGMTIKDAQSQYGKSFSIIEQNRTESTKPAGTILEQTPAGGDTVSKRDNIIIRVVVSLG
The “soluble fraction (log2)” value of the first is higher: -0.176 for the first, -1.45 for the second.

Going from “HMKDSKSALQEYALERKMGLPVYEVVDRSGPDHAPQFVIAVSLGEWRLEAKGASKRQAEQQAASLMLEEI” to “HMKDYTIDDIINSKVEHPLGGYQSRFKVGEYEVSVVGGRQTNHGDFIHTFELAIFDKNNNFLRNLTPVTID”, the “soluble fraction (log2)” value rises from -0.174 to 0.0559.

Compared with “HMKEATTSPLDGIPGIGSKRKKALLSHFGSARSVARADIPDLMRVDGISRQVAETIYGWFHN”, “HMKEDFPLLEQLRYTGEGADVTGTAEKMESIQALRSAADSGGFRATLGDIQQIPGGGLRFTLSLRGSR” is higher in “soluble fraction (log2)” value: -0.417 for the first, -0.0408 for the second.

Going from “HMKEDNPIVLINLQAKEGEWVFKGTGLPYVGKYHQHKNGEYMIGIGVLNLNHELKPDEIIIPNPNK” to “HMKEEDYEVFMRLINVRGIGPKSALNILGVISGQEMIQAIENDDIKRLKSLPGIGAKTAGQIVLDLKGKFV”, the “soluble fraction (log2)” value falls from -0.362 to -0.746.

Going from “HMKEFIPPVLDDVLKFFSGSLLPDWENQGRLFFSHYNSQGWRKGTGVQVTDWDSLANKWILDEKIKRDARS” to “HMKEGTIPPVVNRTLSDAEFVLKSYGYELGRVSEQHSDMPKDIVIKQSPEAGTVADPGTRVDVVVSIGKA”, the “soluble fraction (log2)” value rises from -0.489 to 0.485.

First: HMKEHDTLALRLTAILRKLNDGEKLVPRELAEEFNVGIRTIQRDLTERLSFLDLEKTNGAYSLPTRNL
Second: HMKEIIFRGIGEFILDYKSLVIEFLNKNNYANLSMDAPVDEVNKAVANNMLNEDFVTELLLFQRRVE
The “soluble fraction (log2)” value of the first is higher: -0.843 for the first, -4.14 for the second.

Compared with “HMKEILLITGKGLHSGQDDVYKSAQLSKLRYSVPEFIKSNLEISQLILSVETPLQKDGGDGALLIK”, “HMKEILVGVEPLSKKQIIIKKGIKGRSDYIIFEKKNYGLPENLKPEEVSIEIALKIIDEKKKRKA” is lower in “soluble fraction (log2)” value: -0.0322 for the first, -1.48 for the second.

Going from “HMKEIPTKKGDMLEIYEANGKYILKYPTFNITMPEVVKEIPKEAVDSYLAGKHDGEELINYANFGFWKS” to “HMKEKDAYTSEILDTLKNAKLLVVEGTVYPLLTRLKNDGLLNYRWEESTSGPPRKYYGLTDEG”, the “soluble fraction (log2)” value falls from -0.0757 to -0.704.

Compared with “HMKEKIIKEPYDLFTTDKIGQALEVQALLARQGIKVQRRVDGTKSTLFLENYTQSEKDQALLAVVRSGIV”, “HMKEKPLWAIRITELREEHYFTQTDVSKALGIAQTTYAGYETGRHEPDFETMIKIADIYKVSLDYLIGR” is lower in “soluble fraction (log2)” value: -0.719 for the first, -2.03 for the second.

Going from “HMKELFETLPDVLDAKLLASALSISKAGAYQLLNRPDFPTLQVGGWKLVTKQKLALWMEQHTN” to “HMKELFGQRLREQRLKQNLTLEQLAEKANLSPNYVGMVERGLKEPGLATIVKLLNGLNVSADTLL”, the “soluble fraction (log2)” value rises from -3.39 to -0.446.

Going from “HMKELLTKQQREEILETVKTKTPKDFGYTAEHWTTGFLGKWIEEHYEVEYKSKTSLYLVFKKASFTYHKPG” to “HMKELTARQIEILDFITNYEWRHGYWPSIRNIQVQFSYKSTNAVMGHLRALERKGAIERIPGQARTFRIH”, the “soluble fraction (log2)” value falls from 0.24 to -3.53.

First: HMKEPFETMPDVMDAKQIAEALQISKAGAYNLLNSPDFPTLRIGGRKLVMKNELVEWLKSHTNRK
Second: HMKEPPTLEEIKNYFASKLSTELESEKFFNYFESNGWLVGGKTPMKNWQSAANNWLINMSKFN
The “soluble fraction (log2)” value of the first is higher: 0.428 for the first, -0.853 for the second.

Compared with “HMKEPQLGPVRKWSDQTGNFGIEAQFVKREGDNILLKRADQRTISIPLEKLSDADQEHLKQEEQKQAME”, “HMKEQLEAYVNRLFADAALTIRNAEVRQEILQHALDRYDDLIASGKTEQEAYDETVSGIGDVSGLYEHK” is lower in “soluble fraction (log2)” value: -0.333 for the first, -0.584 for the second.

First: HMKETKVIHVHLIFKKTSRFFGSISAIYSEFTAEEIGITEETLRHKGLSDGVSFATKKAIIQQGVLIR
Second: HMKEVDSESAFAERGISEVWIPALQKMGILTLEALDAANPNKVFNDLGGMRKKLKIDAAMPTKDEVTAWIQ
The “soluble fraction (log2)” value of the first is lower: -2.78 for the first, 0.0576 for the second.

First: HMKEVKPSDFFLSKLDEDHNLIEKFNALSSFKQKEFIEYIDSAKQEKTKHDRFEKIKPILLSNIGLNDKYR
Second: HMKEVVVPDYFLKQLQKNKKAFITFNNFSPSHKREYVEWITEAKTEETKNRRMKSAIEWMSEGKSRNWKYI
The “soluble fraction (log2)” value of the first is higher: -0.0777 for the first, -0.589 for the second.

“HMKFGETLIDLRKRNGLTQEELAAKLYVTRQAVSRWERGEVTPGIDMLKLIANVLNEPVAHLLDW” and “HMKFNRPMSEILQEWENKLGTTSDAELAGLIGVVTMTINRWRKNETKPDLSALNRYDRIVNLVVNNIKQL” are within 0.2 log units of each other in “soluble fraction (log2)” value: -2.14 for the first, -2.27 for the second.

Going from “HMKFPPELVEFIEGLSLLKPPLNYATVHRRAEKLAIKKGWASPSYSTVRNIIRKLSPALTTLAHEG” to “HMKGAADPAIKQKVLDYLDTVEKAKSKEIAKAISEEKSAVDLAVKELAFEDKVEYLYITTTFVALKGKVA”, the “soluble fraction (log2)” value rises from -2.57 to -1.51.

First: HMKGALQIAIEEGFNWNLDKKYWNIVQSTVIAKRLGLKTTSGLKEAIEGMGGEYKRTKKARGYLVPTFKD
Second: HMKGDYWIIDLDKNYQYAIISEPDRQYLWILSRSPNMDTQTLETLKEKIRSKGFDLTYLKQTL
The “soluble fraction (log2)” value of the first is lower: -3.98 for the first, -1.53 for the second.

Compared with “HMKGHQASTTWISERVKDIIKEDPTLGARKLQKRLEIHYNIELSYFKVWSGKNLQWMIFMVL”, “HMKGSYTVKSGDNLWSIARKFYGGSGSTWTKIYSANKSTIESTARRYGRSSSDNGHWIYPGTVLVIP” is lower in “soluble fraction (log2)” value: 0.0846 for the first, -0.924 for the second.

Going from “HMKGVSFEEIERAVRTAQNPEADETAQQHAGMVFSRMEGNELFDKLVQSSSTIGKKITGLMDYYL” to “HMKGYIGESKARNIALKKAPGASITKFEFDKDDGIAVYEVELRKGIYEYELKINAVTGAIIEFEKDIE”, the “soluble fraction (log2)” value falls from -0.239 to -2.2.

Going from “HMKHKYWEIKERIKKDILNEVYKKGESIPSERDLAGIYDVTRVTVQKAMAMLVQEGYIERIHGKGMFVLKN” to “HMKHRFVVGEVLSIGKLQHEITLKTAQGERKFQLDKQDLPASIQDGAKVRAELNEAGRVIDVHPLK”, the “soluble fraction (log2)” value rises from -2.32 to -0.0848.

Compared with “HMKHYMKITDISLQTRDKNRVNVSVDGKYRFSLDVFQVGELGLKVGREYTDEELTALEDESQFG”, “HMKIATIELVKEAVKSKLGKFTKRDIMELVPSVGKTTIENMLKQLIGEGYIERHGKGRATFYVK” is higher in “soluble fraction (log2)” value: -1.11 for the first, -0.761 for the second.

Going from “HMKIDANTFTSIEKQLFVLLSKTPTPMGSIFVALAKEDKEAVWEVIHFLEAENRLIMNEDGTIQL” to “HMKIDEVSFAYIERTLFSMLGKLPTPVNKVIATIGEEKKETIWEVIRFLESENKLITNEDGTLQL”, the “soluble fraction (log2)” value falls from -2.14 to -2.46.

“HMKIDNIIIYITGGVKKEGVYELPDGSRISDAIEQAEGLKANADTSSINLAYKLEDGMKIKIPLQGEN” and “HMKIDNPEYQKIMDMIPYFFQTRNYDEAIEALSYVIEQEPSFSEAYNKRATFYFMMGDFENSMKDIESTLA” are within 0.2 log units of each other in “soluble fraction (log2)” value: -0.181 for the first, -0.288 for the second.

First: HMKIEEVIEKLKTDSIISRKEYEDIVRQINPNLSDRTIFWQLAKLQDMGVLQKIGQNSFHVRN
Second: HMKIERKGDESYLSFVERATSALSDGLIDYQQWGRAVVGEDLYSEENTRRIAKFFAQFIQNLEND
The “soluble fraction (log2)” value of the first is higher: -0.183 for the first, -2.62 for the second.

Going from “HMKIKAKYTTDFGIRIYAPKPGKNYWRISYVDLDGKLRDTTATSEKTALDKSAEIEVLLRNN” to “HMKILALETSAKAVSAAVSENGRILASGYQDTGLTHSRTLMPIVEHILKNTDLKLSDMDAIAVAVGPG”, the “soluble fraction (log2)” value rises from -2.2 to 0.144.

First: HMKIMSLSERHQKILELLKVNGIVSVNSLSRQLNVSSVTIRKDLGLLEEKKLLYRSHGGAIQID
Second: HMKINYNEFLRRFLGEKEGDIIEMETGKRIGTHKGYWFHTIGQRKGLGLGGGPWFVIRKDIDENIIYVSHG
The “soluble fraction (log2)” value of the first is lower: -3.35 for the first, -1.3 for the second.
